According to PMC9943647, “Structures of pMV158 replication initiator RepB with and without DNA reveal a flexible dual-function protein” (Nucleic Acids Research, 2023):

Tests used:
[1] = molecular target: T1, RepB OBD (origin binding domain), wt (Streptococcus plasmid pMV158, UniProt P13921 1-131); test: EMSA; EMSA: 20 mM Tris-HCl pH 8.0, 5 mM DTT, 300 mM NaCl, 20 nM DNA, 20 min 25 C; footprinting same buffer; SPR: 10 mM HEPES pH 7.4, 150 mM NaCl, 3 mM EDTA, 0.005% P20; conditions: protein: recombinant; tags: none; label: 5'-Cy5 (top); blunt
T1 sequence: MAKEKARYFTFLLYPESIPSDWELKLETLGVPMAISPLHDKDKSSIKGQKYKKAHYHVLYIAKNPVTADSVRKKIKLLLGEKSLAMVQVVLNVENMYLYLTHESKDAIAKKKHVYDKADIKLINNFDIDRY

[2] = molecular target: the molecule itself; test: crystal structure; full-length RepB without DNA; hanging drop, 100 mM Na/K phosphate pH 6.2, 200 mM NaCl, 10% PEG 8000; space group P21, 2.77 A
OBD triple mutant = OBD triple mutant (Streptococcus plasmid pMV158, UniProt P13921 1-131, K3A;E4A;K5A); test: EMSA; EMSA: 20 mM Tris-HCl pH 8.0, 5 mM DTT, 300 mM NaCl, 20 nM DNA, 20 min 25 C; footprinting same buffer; SPR: 10 mM HEPES pH 7.4, 150 mM NaCl, 3 mM EDTA, 0.005% P20; conditions: protein: recombinant; label: 5'-Cy5 (top); blunt
OBD quadruple mutant = OBD quadruple mutant (Streptococcus plasmid pMV158, UniProt P13921 1-131, R72A;K73A;K74A;K76A); test: as above; conditions: protein: recombinant; label: 5'-Cy5 (top); blunt
OBD E4A = OBD E4A (Streptococcus plasmid pMV158, UniProt P13921 1-131, E4A); test: as above; conditions: protein: recombinant; label: 5'-Cy5 (top); blunt
OBD R72A = OBD R72A (Streptococcus plasmid pMV158, UniProt P13921 1-131, R72A); test: as above; conditions: protein: recombinant; label: 5'-Cy5 (top); blunt
OBD K5A = OBD K5A (Streptococcus plasmid pMV158, UniProt P13921 1-131, K5A); test: as above; conditions: protein: recombinant; label: 5'-Cy5 (top); blunt
OBD K76A = OBD K76A (Streptococcus plasmid pMV158, UniProt P13921 1-131, K76A); test: as above; conditions: protein: recombinant; label: 5'-Cy5 (top); blunt
[3] = molecular target: T1, RepB OBD (origin binding domain), wt; test: SPR; HBS-EP pH 7.4, 150 mM NaCl; specific DNA is 1DDR in text, DDRC in Fig 3; EMSA: 20 mM Tris-HCl pH 8.0, 5 mM DTT, 300 mM NaCl, 20 nM DNA, 20 min 25 C; footprinting same buffer; SPR: 10 mM HEPES pH 7.4, 150 mM NaCl, 3 mM EDTA, 0.005% P20; conditions: protein: recombinant; tags: none; label: 5'-Cy5 (top) for EMSA; 5'-biotin for SPR; blunt
[4] = molecular target: T1, RepB OBD (origin binding domain), wt; test: EMSA; complex half-life <10 s; EMSA: 20 mM Tris-HCl pH 8.0, 5 mM DTT, 300 mM NaCl, 20 nM DNA, 20 min 25 C; footprinting same buffer; SPR: 10 mM HEPES pH 7.4, 150 mM NaCl, 3 mM EDTA, 0.005% P20; conditions: protein: recombinant; tags: none; label: 5'-Cy5 (top) for EMSA; 5'-biotin for SPR; blunt
[5] = molecular target: T1, RepB OBD (origin binding domain), wt; test: SPR; HBS-EP pH 7.4, 150 mM NaCl; Results text names 1DDR, but Methods, Table S1 and Fig 3 legend name DDRC; EMSA: 20 mM Tris-HCl pH 8.0, 5 mM DTT, 300 mM NaCl, 20 nM DNA, 20 min 25 C; footprinting same buffer; SPR: 10 mM HEPES pH 7.4, 150 mM NaCl, 3 mM EDTA, 0.005% P20; conditions: protein: recombinant; tags: none; label: 5'-Cy5 (top) for EMSA; 5'-biotin for SPR; blunt
[6] = molecular target: T1, RepB OBD (origin binding domain), wt; test: EMSA; per DDR site, independent binding, complexes C1-C3; Kd ~0.8 uM; EMSA: 20 mM Tris-HCl pH 8.0, 5 mM DTT, 300 mM NaCl, 20 nM DNA, 20 min 25 C; footprinting same buffer; SPR: 10 mM HEPES pH 7.4, 150 mM NaCl, 3 mM EDTA, 0.005% P20; conditions: protein: recombinant; tags: none; label: 5'-Cy5 (top) for EMSA; 32P at both 5' ends for footprinting; blunt

B1: DDRR (dsDNA)
DNA 1: CTTTTCGGCGACTTTTTAG
DNA 2: CTAAAAAGTCGCCGAAAAG
Kd [1]: ~1000 nM

B2: DDRL (dsDNA)
DNA 1: AATCTCGGCGACTTTTCGG
DNA 2: CCGAAAAGTCGCCGAGATT
Kd [1]: ~1000 nM

B3: RepB, replication initiation protein of plasmid pMV158 (full-length hexamer) (natural protein, streptococcal plasmid pMV158, UniProt P13921 1-210, looked up)
chain: MAKEKARYFTFLLYPESIPSDWELKLETLGVPMAISPLHDKDKSSIKGQKYKKAHYHVLYIAKNPVTADSVRKKIKLLLGEKSLAMVQVVLNVENMYLYLTHESKDAIAKKKHVYDKADIKLINNFDIDRYVTLDVEEKTELFNVVVSLIRAYTLQNIFDLYDFIDENGETYGLTINLVNEVIAGKTGFMKLLFDGAYQRSKRGTKNEER
notes: RepB, replication initiator (HUH endonuclease) of the streptococcal plasmid pMV158; Crystallised without DNA; a phosphate sits in each active site instead of Mn2+; also called RepB6; full-length RepB
stoichiometry N [2]: 6

B4: 1DDR (dsDNA)
DNA 1: AATCTCGGCGACTTTTTAGA
DNA 2: TCTAAAAAGTCGCCGAGATT
Kd (OBD triple mutant): 1100 ± 100 nM | binding result (OBD quadruple mutant): no binding | Kd (OBD E4A): 600 ± 100 nM | Kd [1]: 1100 ± 100 nM | Kd (OBD R72A): 1700 ± 200 nM | Kd (OBD K5A): 1800 ± 200 nM | Kd (OBD K76A): 5500 ± 700 nM

B5: NS (dsDNA)
DNA 1: CGGGTCGGTAATTGGGTTT
DNA 2: AAACCCAATTACCGACCCG
binding signal [3]: ~15 fold lower affinity than specific DNA

B6: DDRC (dsDNA)
DNA 1: CTTTTCGGCGACTTTTCGG
DNA 2: CCGAAAAGTCGCCGAAAAG
Kd [4]: ~1000 nM | Kd [5]: 220 ± 10 nM

B7: 3DDR (dsDNA)
DNA 1: AATCTCGGCGACTTTTCGGCGACTTTTCGGCGACTTTTTAGA
DNA 2: TCTAAAAAGTCGCCGAAAAGTCGCCGAAAAGTCGCCGAGATT
Ka [6]: 1.2 ± 0.4 µM⁻¹
